From publication PMC9640981, “Plant vernalization proteins contain unusual PHD superdomains without histone H3 binding activity” (The Journal of Biological Chemistry, 2022)

Target: Arabidopsis thaliana (At) OBE1_(193-372), PHD superdomain of OBERON 1 (A. thaliana) (UniProt Q9S736)
Assay: ITC; 25 °C, iTC 200; 25 mM Tris pH 8, 150 mM NaCl, 1 mM DTT; 19 injections of 2 μl of 0.25 to 1 mM peptide into 50 μM protein

Kd: 1900 nM
Substance: H3K4me2 (1–15) histone H3 tail peptide (from UniProt P68431 2-16)
